In patent publication US11253617B2, “One step 64Cu-BaBaSar-RGD2 production method” (UNIVERSITY OF SOUTHERN CALIFORNIA, priority 2017, dated 2022):
Where “and” joins values, the source holds several entries; their conditions need not be identical. Identical values can stand only once. Like-named read-outs stand apart in the source and are kept apart here.

Legend:
[1] = reference 24; cited from earlier work
[2] = Estimated human absorbed doses (Olinda/EXM) from PET biodistribution in macaque monkey; type: in vivo
Method: (§1) The PET images at 1, 5, 10, 20, 40, 60, 120, and 180 min after injection are disclosed in FIG. 4. […] The bladder content was visualized at 10 min after injection and more and more activity was accumulated in urine bladder content. […] Gallbladder uptake was not observed during the whole scan. […] The urinary bladder had the highest uptake, with 51.37%±8.73% of injected activity at 1 h post injection. The maximum uptake for the liver, and kidneys were 37.40±6.63% ID (9 min) and 26.79±4.35% ID (0.5 min) respectively.
The mean organ doses for the human phantom were calculated with Olinda/EXM using ^64Cu-BaBaSar-RGD2 biodistribution in monkey (Table 2). The kidneys had the highest radiation-absorbed doses (108.43 μGy/MBq), followed by the bladder wall (87.07 μGy/MBq). The mean effective dose of ^64Cu-BaBaSar-RGD2 was 15.30±2.21 μSv/MBq. […] The estimated doses for […] were higher by 18% because body and organ sizes of women are smaller than those men (data not shown).
Integrin αvβ3-targeted radiopharmaceutical ^64Cu-BaBaSar-RGD2 has been successfully synthesized with the one-step kit method. The straightforward method greatly simplifies the production process and benefits the clinical application of ^64Cu-BaBaSar-RGD2. Human radiation dosimetry of ^64Cu-BaBaSar-RGD2 was estimated after intravenous administration in macaque monkey, by PET imaging and OLINDA/EXM calculations. The critical organs were kidneys and urinary bladder wall. The mean effective dose, determined with the male adult model, was […]. […] Therefore, ^64Cu-BaBaSar-RGD2 can safely be used in human scan for further evaluation of its performance as an integrin-targeting probe.

[3] = Blood clearance from venous blood samples during PET scan; type: in vivo, monkey
Method: Venous blood samples were withdrawn from monkey during the PET scan. […] At 22 h after injection, the activity in the blood decreased to 0.79±0.52% ID. Based on the percentage of injected dose in blood sample, the half life of ^64Cu-BaBaSar-RGD2 in blood pool was calculated as 12.1±4.0 min (n=3).

[4] = tested on: U87MG glioblastoma tumor; conditions: cited from earlier work
[5] = Vital signs after injection in macaque monkey; type: in vivo; conditions: 13.1-19.7 MBq/kg, during and 24-h after PET scan
Method: as §1

[6] = in vitro and in vivo, reference 23; cited from earlier work
[7] = PET/CT biodistribution in macaque monkey; type: in vivo; conditions: for tissue uptake dose: monkey, iv, total radioactivity
Method: FIG. 4: Decay-corrected anterior maximum-intensity projections of PET/CT at 1, 5, 10, 20, 40, 60, 120, and 180 min after injection of ^64Cu-BaBaSar-RGD2 in macaque monkey.
as §1

[8] = human phantom, Olinda/EXM, monkey biodistribution, Mean ± SD
[9] = male human phantom, Olinda/EXM, monkey biodistribution, Mean ± SD

OC[C@H]1OC(O)[C@H]([18F])[C@@H](O)[C@@H]1O (stereo partly drawn) [^18F-FDG, 2-deoxy-2-[^18F]fluoro-D-glucose]
Estimated dose in a whole-body PET scan [1]: 6.23 mSv

N=C(N)NCCC[C@@H]1NC(=O)[C@H](CCCCNC(=O)c2ccc(CNC34CNCCNCC(NCc5ccc(C(=O)NCCCC[C@@H]6NC(=O)[C@@H](Cc7ccc(O)cc7)NC(=O)[C@H](CC(=O)O)NC(=O)CNC(=O)[C@H](CCCNC(=N)N)NC6=O)cc5)(CNCCNC3)CNCCNC4)cc2)NC(=O)[C@@H](Cc2ccc(O)cc2)NC(=O)[C@H](CC(=O)O)NC(=O)CNC1=O [^64Cu-BaBaSar-RGD2, metal not drawn]
Effective dose for the non-voiding model ([2]; 925-MBq administrated into human subject): 14.2 mSv | Mean effective dose, male adult model ([2]; OLINDA/EXM, intravenous administration in macaque monkey): 15.30±2.21 Sv/MBq | Estimated doses for the female human, higher than male by ([2]; female versus male human phantom): 18% | Estimated human absorbed dose, Ovaries [2, 8]: 2.88 ± 0.44 μGy/MBq | Estimated human absorbed dose, Uterus [2, 8]: 4.16 ± 0.63 μGy/MBq | Effective Dose (mean) [2, 9]: 15.30±2.21 μSv/MBq | Estimated human absorbed dose, Adrenals [2, 9]: 3.34 ± 0.52 μGy/MBq | Estimated human absorbed dose, Brain [2, 9]: 1.27 ± 0.22 μGy/MBq | Estimated human absorbed dose, Breasts [2, 9]: 1.34 ± 0.23 μGy/MBq | Estimated human absorbed dose, Gall bladder Wall [2, 9]: 3.07 ± 0.49 μGy/MBq | Estimated human absorbed dose, Heart Wall [2, 9]: 4.39 ± 0.62 μGy/MBq | Estimated human absorbed dose, Kidneys [2, 9]: 108.43 μGy/MBq and 108.43 ± 16.41 μGy/MBq | Estimated human absorbed dose, LLI Wall [2, 9]: 2.86 ± 0.44 μGy/MBq | Estimated human absorbed dose, Liver [2, 9]: 7.54 ± 1.15 μGy/MBq | Estimated human absorbed dose, Lungs [2, 9]: 1.67 ± 0.28 μGy/MBq | Estimated human absorbed dose, Muscle [2, 9]: 1.88 ± 0.31 μGy/MBq | Estimated human absorbed dose, Osteogenic Cells [2, 9]: 7.01 ± 0.91 μGy/MBq | Estimated human absorbed dose, Pancreas [2, 9]: 2.86 ± 0.45 μGy/MBq | Estimated human absorbed dose, Red Marrow [2, 9]: 9.29 ± 1.02 μGy/MBq | Estimated human absorbed dose, Skin [2, 9]: 1.38 ± 0.24 μGy/MBq | Estimated human absorbed dose, Small Intestine [2, 9]: 4.53 ± 0.68 μGy/MBq | Estimated human absorbed dose, Spleen [2, 9]: 6.78 ± 0.88 μGy/MBq | Estimated human absorbed dose, Stomach Wall [2, 9]: 2.11 ± 0.34 μGy/MBq | Estimated human absorbed dose, Testes [2, 9]: 2.03 ± 0.33 μGy/MBq | Estimated human absorbed dose, Thymus [2, 9]: 1.56 ± 0.26 μGy/MBq | Estimated human absorbed dose, Thyroid [2, 9]: 1.39 ± 0.24 μGy/MBq | Estimated human absorbed dose, Total Body [2, 9]: 2.76 ± 0.42 μGy/MBq | Estimated human absorbed dose, ULI Wall [2, 9]: 2.47 ± 0.39 μGy/MBq | Estimated human absorbed dose, Urinary Bladder Wall [2, 9]: 87.07 μGy/MBq and 87.07 ± 12.38 μGy/MBq | Activity remaining in blood ([3]; 3 h after injection, decay corrected): 2.88±0.88 % ID | Activity remaining in blood (range) ([3]; 3 h after injection, range): 2.07-3.82 % ID | Activity in the blood ([3]; 22 h after injection): 0.79±0.52 % ID | Clearance from the blood ([3]; decay corrected activity per unit of blood sample): cleared rapidly from the blood | Tumor uptake ([4]; U87MG glioblastoma tumor bearing mice, reference 23): high tumor uptake | Normal organ uptake ([4]; mouse, in vivo): low normal organ uptake | Effects on vital signs (blood pressure, pulse, electrocardiogram) [5]: no observable effects on vital signs | Stability [6]: great stability both in vitro and in vivo | Urinary bladder uptake ([7]; 1 h post injection, bladder not voided (anesthesia)): 51.37%±8.73% | Activity in gallbladder, small intestine, upper and lower large intestine ([7]; 3 h post injection): 8.62%±1.41% | Gallbladder uptake ([7]; during the whole scan): not observed | tissue uptake dose ([7]; kidneys, at 0.5 min, read-out: Maximum uptake for the kidneys): 26.8 ± 4.35 %ID | tissue uptake dose ([7]; liver, at 9 min, read-out: Maximum uptake for the liver): 37.4 ± 6.63 %ID
